Assay results as given in US20100316642A1, “COMPLEXES OF GRP94 WITH HUMAN IMMUNOGLOBULIN G” (priority 2007, published 2010).

B1: Grp94: Glucose-regulated protein 94, native, purified from the microsomal fraction of rat hepatocytes (protein, UniProt Q66HD0 22-804, looked up)
Endoplasmin: DDEVDVDGTVEEDLGKSREGSRTDDEVVQREEEAIQLDGLNASQIRELREKSEKFAFQAEVNRMMKLIINSLYKNKEIFLRELISNASDALDKIRLISLTDENALAGNEELTVKIKCDREKNLLHVTDTGVGMTREELVKNLGTIAKSGTSEFLNKMTEAQEDGQSTSELIGQFGVGFYSAFLVADKVIVTSKHNNDTQHIWESDSNEFSVIADPRGNTLGRGTTITLVLKEEASDYLELDTIKNLVRKYSQFINFPIYVWSSKTETVEEPLEEDETAQEEKEEADDEAAVEEEEEEKKPKTKKVEKTVWDWELMNDIKPIWQRPSKEVEEDEYKAFYKSFSKESDDPMAYIHFTAEGEVTFKSILFVPTSAPRGLFDEYGSKKSDYIKLYVRRVFITDDFHDMMPKYLNFVKGVVDSDDLPLNVSRETLQQHKLLKVIRKKLVRKTLDMIKKIADEKYNDTFWKEFGTNIKLGVIEDHSNRTRLAKLLRFQSSHHSTDITSLDQYVERMKEKQDKIYFMAGSSRKEAESSPFVERLLKKGYEVIYLTEPVDEYCIQALPEFDGKRFQNVAKEGVKFDESEKSKESREATEKEFEPLLNWMKDKALKDKIEKAVVSQRLTESPCALVASQYGWSGNMERIMKAQAYQTGKDISTNYYASQKKTFEINPRHPLIRDMLRRVKEDEDDKTVMDLAVVLFETATLRSGYLLPDTKAYGDRIERMLRLSLNIDPEAQVEEEPEEEPEDTTEDTTDDSEQDEEETDAGAEEEEEEQETEKEPTEKDEL

Assays:
[1] = tested on: human umbilical vein endothelial cells (HUVECs); test: Cell growth stimulation of HUVECs (cell count in hemocytometer); assay type: cell-based; conditions: U0126 10 μM alone, no Grp94, control without inhibitor (DMSO 0.1%) 98.01±5.4×10^3
Protocol: Cells were grown in endothelial basal medium supplemented with fetal bovine serum (FBS) at 10%, and after a starving period of 8-10 h in absence of FBS, fresh serum-free medium was added (2 ml) together with Grp94 (at the final concentration of 1 and 10 ng/ml) both alone and with IgG (at the molar ratio of 1:1). After an incubation period of 20 h, the medium was collected and cells detached from duplicate wells and counted in a hemocytometer. Cell viability was evaluated with the trypan blue dye exclusion method; trypan blue only enters cells with an altered, but not intact membrane permeability.
Histograms in FIG. 2(B) represent the number of cells grown with Grp94 (10 ng/ml), both alone and in the presence of IgG, with the addition of the inhibitor U0126 (10 μM, final concentration). […] The inhibitor was added to cell cultures 30 min before the addition of Grp94, both alone and with IgG. […] Asterisks on bars mark statistically significant (*, p<0.05) and highly significant (**, p<0.001) differences with respect to control values (empty bars).

HUVECs [2] = test: Microscopic evaluation of morphogenic (angiogenic) transformation of HUVECs; assay type: cell-based, human
[3] = tested on: HSP90 and HSP70 expression in HUVECs; test: Expression of HSP90, HSP70 and IgG in HUVEC lysates and conditioned media (SDS-PAGE, Western blotting); assay type: cell-based, human
Protocol: 2. Effects on the expression of HSP70 and HSP90 in HUVECs: hereafter are described in detail the method and results shown in FIG. 3(A) referred to experiments performed after 20-h incubation of cells in the presence of Grp94 (10 ng/ml), both alone and with IgG, with and without the inhibitor U0126 (10 μM, final concentration). Cells were detached from wells and treated with lysis buffer (50 mM Tris-HCl, pH 8.9, 5 mM EDTA, 380 mM glycine, 2% SDS, 7 mM β-mercaptoethanol). Whole cell lysates were analyzed in SDS-PAGE (10% polyacrylamide gel) followed by Western blotting with anti-HSP90, anti-HSP70 and anti-human IgG Abs. The same quantity of proteins (determined by means of densitometric analysis made on common bands in any lysates) was loaded in each well in SDS-PAGE. Arrows on left mark bands in the lanes that are also shared by nearby lanes on right. […] It is worth noting that band positive for IgG appear at the same masses at which also focuses HSP70. In the presence of the inhibitor, the HSP90 expression is blocked, whereas that of both HSP70 and IgG is still evident in cells after treatment, especially in bands at higher molecular masses. Western blotting for each type of protein is representative of at least three other experiments made on the same samples on different occasions.
The analysis made on cell lysates was also conducted on conditioned media (collected from the same cell cultures on which lysates were obtained, as reported above). Media were collected from duplicate wells, centrifuged for removing cell debris, extensively dialyzed, lyophilized and submitted to electrophoresis analysis followed by Western blotting with anti-HSP90, anti-HSP70 and anti-human IgG Abs (as above, for cell lysates). […] In particular, it was observed that the secreted species of HSP90, HSP70 and IgG were only those induced by treatments with Grp94, especially in complexes with IgG.

HUVECs [4] = test: Confocal microscopy of HSP90/HSP70 fluorescence and cytoskeleton changes in HUVECs; assay type: cell-based, human; conditions: Grp94 10 ng/ml, serum-free medium
Protocol: Cells were cultured in serum-free medium both without any treatment (control, panels a) and with the addition of both Grp94 alone (10 ng/ml) (panels b) and Grp94 in complexes with IgG (panels c), as specified above. In FIG. 4(A) is shown the fluorescence (evidenced with confocal microscopy) due to anti-HSP90 Abs reacting with HSP90 in both control and treated HUVECs (panels a, b and c on left). Intensity of the fluorescence is increased in cells treated with Grp94, especially when present in complexes with IgG. […] Of interest is the co-location of HSP90 with actin, mostly evident in podosomes, underlined by the pale blue fluorescence due to merging of the green and blue fluorescence of HSP90 and actin, respectively (panels on right). In FIG. 4(B) is shown the fluorescence due to HSP70 following the addition to cell cultures of anti-HSP70 Abs, similarly to what reported for anti-HSP90 Abs. […] Arrow heads in both (A) and (B) mark some of the most significant structural changes in the cell cytoskeleton (inserts in panels on right).

[5] = tested on: human peripheral blood mononuclear cells (PBMCs); test: Growth stimulation of PBMCs (cell count after 2-week culture); assay type: cell-based; conditions: 2-week incubation, no FBS, control 10% FBS
Protocol: 4. Effects of stimulation of PBMC: PBMC were obtained from blood using the method of the Ficoll-Paque gradient. A sample of about 25 ml of buffy-coat (concentrated sample of red blood cells, white blood cells and platelets) was obtained after centrifugation of 250 ml of blood. The buffy-coat, containing about 300-600 million of PBMCs (1 million/ml of blood sample), was put in a 50-ml Falcon test-tube with the addition of a volume of RPMI (Roswell Park Memorial Institute) medium equal to half of the buffy-coat volume. The first step of PBMC separation included the preparation of the Ficoll solution in aliquots kept in the dark at +4° C. Five ml of buffy-coat were dropped on 4 ml of Ficoll solution put in Falcon test-tube (14-ml capacity). After centrifugation at 600×g for 30 min in swinging buket rotor, the white disk of PBMCs stratified between the upper […] (red blood cells instead precipitate to the bottom), and was thus recovered with a Pasteur pipette. The fractions of PBMCs were mixed together in a Falcon test-tube (50-ml capacity) and fresh RPMI medium added up to the volume of 50 ml. After centrifugation at 600×g for 15 min, the supernatant was discarded and the pellet washed twice by adding the medium up to the volume of 50 ml, each washing being followed by centrifugation at 300×g for 10 min. After the last centrifugation, the pellet was re-suspended with RPMI medium up to 50 ml of volume.
The count of PBMCs was made on a diluted solution of PBMCs, mixing 50 μl of the starting solution in 250 μl (final volume) of Turk dye solution (in acetic acid). The cell count was made in a common cell-counting chamber.
In experiments aimed at measuring IgG concentrations in the medium, PBMCs are seeded at the concentration of 2×10^6 cells/ml (1 ml/well) in a 24- or 48-well flat-bottomed plate (wells of 2 and 1 ml, respectively) incubated at 37° C., in a humidified 95% air, 5% CO2 atmosphere for 2 weeks. […]

PBMC = test: IgG production from PBMC (anti-human Ig-I125 radioimmunoassay of supernatants); assay type: cell-based; conditions: Grp94 10 ng/ml (maximum of stimulation), 2-week incubation at 37° C.
Protocol: In experiments aimed at measuring IgG concentrations in the medium, PBMCs are seeded at the concentration of 2×10^6 cells/ml (1 ml/well) in a 24- or 48-well flat-bottomed plate (wells of 2 and 1 ml, respectively) incubated at 37° C., in a humidified 95% air, 5% CO2 atmosphere for 2 weeks. Controls included triplicate wells containing medium only (or the diluent in which substances were dissolved, where appropriate), puromicine (100 μg/ml, final concentration, useful for detecting background Abs, i.e., Abs already present in circulation non specifically bound to blood cells), and a standard mitogen (pockweed mitogen, PWM) diluted 1:50 (v:v). Treatment included the addition of Grp94 (at final concentrations of 1, 10 and 100 ng/ml), both alone and in complexes with IgG, and IgG alone (at the final concentration necessary to give a 1:1 molar ratio with Grp94), after each solution was incubated at 37° C. for 1 h.
5. IgG production from PBMC: on a 96-well (200 μl each) flat-bottomed Optiplate (Packard) were laid down 50 μl of anti-human IgG Abs (5 μg/ml in NaHCO3/Na2CO3 buffer, ph 9.6) that were allowed to dry out overnight. Afterwards, 200 μl of PBS with 3% BSA and 0.02% NaN3 were added to saturate aspecific binding sites in Abs. […] The plate was then dried after additional washings and radioactivity measured after the addition of 30 μl of Microscint 20 in each well. […]

human IgG = test: Dot-blot analysis of Grp94 binding to human IgG; conditions: human IgG 4 μg/ml, 8 h room temperature
Protocol: In dot-blot experiments, strips of PVDF membrane were rinsed first in methanol (1 min) and then in de-ionized water (1 min) and let partially dry (3 min). Dots were made with 10 μl of Grp94 (2 μg). Grp94 solution (in bi-distilled water) was used as such (without any treatment) or after boiling for 2 min. Dots with each of the Grp94 solutions (both untreated and boiled) were made in duplicate on membrane strips that were incubated in both absence (control, in TBS only) and presence of human IgG (4 μg/ml) for 8 h at room temperature. Membrane strips were then incubated overnight with a blocking solution of BSA (1%) and Tween (0.2%), followed by washings with TBS (for 1 h) and a further incubation with primary sheep anti-human IgG Abs (2.5 μg/ml). After repeated washings with TBS (for 1 h), membrane strips were then immersed in the solution of secondary Abs (donkey anti-sheep IgG Abs) for 1 h and probed with the detection solution. Control strips with dots of Grp94 incubated with TBS alone were probed with both primary and secondary Abs, and with secondary Abs alone.

binding to IgG (dot-blot) (human IgG; Grp94 after boiling for 2 min) | binding to IgG (dot-blot) (human IgG; untreated Grp94 2 μg dots) | Molecule | number of control cells in presence of the inhibitor [1] | morphology of HUVECs with inhibitor on its own (HUVECs [2]; U0126 10 μM alone) | HSP90 expression in treated HUVECs in the presence of the inhibitor ([3]; U0126 10 μM added to cells treated with Grp94 10 ng/ml alone or with IgG) | morphogenic transformation of HUVECs (HUVECs [2]; Grp94 10 ng/ml, alone or with IgG 1:1, not changed significantly by U0126, versus cobblestone morphology of control) | HSP90, HSP70 and IgG in conditioned media (Western blotting) ([3]; HUVEC media after 20-h treatment, Grp94 10 ng/ml, no positivity in control media, mostly in complexes with IgG) | HSP70 in whole cell lysates (Western blotting) ([3]; HUVECs, Grp94 10 ng/ml, 20-h incubation, constitutive form in any lysates) | HSP90 in whole cell lysates (Western blotting) ([3]; HUVECs, Grp94 10 ng/ml, 20-h incubation, not present in control lysates) | intensity of HSP90 fluorescence (confocal microscopy) (HUVECs [4]; especially in complexes with IgG) | fluorescence of HSP70 (confocal microscopy) (HUVECs [4]; versus control) | increase in PBMC number with respect to the control value ([5]; Grp94 1 ng/ml) [%] | increase in PBMC number with respect to the control value ([5]; Grp94 10 ng/ml) [%] | increase in PBMC number with respect to the control value ([5]; Grp94 100 ng/ml) [%] | IgG production (radioactivity) (PBMC) [cpm]
 |  | N#CC(=C(/N)Sc1ccccc1N)/C(C#N)=C(\N)Sc1ccccc1N [U0126, reference compound] | 80.38±4.02×10^3 | pre-angiogenic transformation | blocked |  |  |  |  |  |  |  |  |  | 
did not bind IgG any longer | stable binding | B1 |  |  |  | angiogenic modifications | positive immune reaction | additional bands referred to inducible species of HSP70 | positivity | increased | increased | 5 | 63 | 47 | 316
